This note sets out measurements from patent US20090196872A1 (KIRIN BEER, published 2009).

Assay [1] addresses M2DLTGS peptide (influenza A virus). Nature of the assay: peptide ELISA, avian flu M2 variants. A general note: An ELISA detects its analyte on a solid surface through an enzyme-linked reagent.
For assay [2], the target named is M2LTKGS peptide (influenza A virus). Nature of the assay: peptide ELISA, avian flu M2 variants.

B1: human anti-M2 monoclonal antibody no. Z3G1 (recombinant IgG1 type Z3, CHO; ATCC PTA-5967) (antibody, V domains shown)
VH: QVQLVQSGAEVKKPGASVKVSCKASGYTFTSYGISWVRQAPGQGLEWMGWISAYNGNTNYAQKLQGRVTMTTDTSTSTAYMELRSLRSDDTAVYYCARAAAGGYFQHWGQGTLVTVSS
VL: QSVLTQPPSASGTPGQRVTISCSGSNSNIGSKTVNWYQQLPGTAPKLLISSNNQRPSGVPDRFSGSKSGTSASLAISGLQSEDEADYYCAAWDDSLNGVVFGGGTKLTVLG
On to B1, for which the binding result in assay [1] and in assay [2] was “binds” in each case.
